Measured values reported in paper PMC10945275.

Tests used:
Experiment in all cases: radioligand binding
G574V-EGF receptor = G574V-EGF receptor (UniProt P00533)
R84K-EGF receptor = R84K-EGF receptor (UniProt P00533)
wild-type EGF receptor = wild-type EGF receptor (UniProt P00533)
A265V-EGF receptor = A265V-EGF receptor (UniProt P00533)

EC50 (G574V-EGF receptor): 0.17 nM
EC50 (R84K-EGF receptor): 0.036 nM
EC50 (wild-type EGF receptor): 0.75 nM
EC50 (A265V-EGF receptor): 0.28 nM
Substance: 125I-EGF (ligand)
